Assay results published in US20250277029A1 (Amgen, published 2025).

B1: LIBC523661-1 (antibody, V domains shown)
VH: QVQLQESGPGLVKPSQTLSLTCTVSGGSIRRGGDYWSWIRQHPGKGLEWIGHIYYEGSTKYNPSFKGRATISVNTYKNQFSLKLSSVTAADTAVYYCARDYDPVTGHSYYYYGMDVWGQGTTVTVSS
VL: DIVMTQSPLSLPVTPGEPASISCRSSQSLLTSSGYNYVDWYLQKPGQSPQLLIYQGSNRASGVPDRFSGSGSGTDFTLKISRVEAEDVGVYYCRQARAIPRTFGQGTKVEIKR
notes: Expressed as IgG1 SEFL2 mAb
B2: LIBC523661-1 (antibody, IgG1, V domains shown)
VH: B1 VH
VL: B1 VL

Columns and labels:
[1] = target: T1, human cannabinoid receptor 1 (huCB1), full length, expressed on cells (human, UniProt P21554 1-472); assay: KinExA on-cell ranking, HEK 293T cells expressing full length CB1; reference antibody of the ratio
T1 construct: Used for all assays on cells: stably transfected CHO / CHOK1 cells (cAMP assays) and transiently transfected HEK 293T cells (KinExA, FACS); also called Full length hu CB1; wt huCB1
T1 sequence (P21554 whole entry): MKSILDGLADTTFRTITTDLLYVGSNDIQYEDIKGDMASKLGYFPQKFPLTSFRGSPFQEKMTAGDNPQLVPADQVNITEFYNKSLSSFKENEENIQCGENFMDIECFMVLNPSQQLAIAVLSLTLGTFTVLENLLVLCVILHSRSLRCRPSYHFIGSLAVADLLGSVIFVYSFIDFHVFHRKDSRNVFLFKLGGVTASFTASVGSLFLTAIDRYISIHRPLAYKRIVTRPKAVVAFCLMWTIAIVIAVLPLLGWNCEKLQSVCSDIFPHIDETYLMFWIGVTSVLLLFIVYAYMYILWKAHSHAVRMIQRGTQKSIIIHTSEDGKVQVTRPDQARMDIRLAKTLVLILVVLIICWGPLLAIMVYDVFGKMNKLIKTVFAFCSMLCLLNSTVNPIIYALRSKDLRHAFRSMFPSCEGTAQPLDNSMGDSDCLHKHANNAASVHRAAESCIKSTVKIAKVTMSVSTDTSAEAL

[2] = target: T1, human cannabinoid receptor 1 (huCB1), …; assay: cell-based or functional assay
[3] = target: T1, human cannabinoid receptor 1 (huCB1), …; assay: cell-based or functional assay; remark: listed apart in the source
[4] = target: T1, human cannabinoid receptor 1 (huCB1), …; assay: cell-based or functional assay; remark: listed apart in the source
huCB1 nanodisc (CB1-ND) = target: T2, huCB1 nanodisc (CB1-ND) (human, UniProt P21554 99-414); assay: Octet BLI; antibody captured by anti-human Fc, CB1-nanodisc in solution, 1:1 model
T2 construct: The His-tagged CB1 is embedded in a POPC lipid nanodisc with MSP1D1 scaffold protein (molar ratio 480:8:1); also called huCB1-ND; #CB1-008
T2 sequence (P21554 99-414 limits assumed): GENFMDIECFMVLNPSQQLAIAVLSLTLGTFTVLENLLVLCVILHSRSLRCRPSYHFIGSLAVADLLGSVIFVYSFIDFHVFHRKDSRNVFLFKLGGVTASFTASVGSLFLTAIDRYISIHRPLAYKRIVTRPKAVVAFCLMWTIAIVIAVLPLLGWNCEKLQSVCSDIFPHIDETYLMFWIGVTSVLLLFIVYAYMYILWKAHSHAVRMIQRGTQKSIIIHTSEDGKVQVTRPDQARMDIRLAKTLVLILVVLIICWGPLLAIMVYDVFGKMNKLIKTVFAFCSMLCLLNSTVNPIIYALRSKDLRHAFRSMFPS

[5] = target: T3, His-tagged huCB1-ND (human CB1 in nanodisc) (human); assay: flow cytometry, yeast-displayed IgG, huCB1-ND over empty-ND
T3 construct: CB1 construct of Cell 167(3) (2016) 750-762 expressed in Sf9 cells; POPC:MSP1D1:CB1 480:8:1; also called CB1-nanodisc; huCB1-Nanodisc; not shown: histidine purification tag
T3 sequence (P21554 99-414): as the sequence (P21554 99-414 limits assumed) above

[6] = target: T3, His-tagged huCB1-ND (human CB1 in …); assay: flow cytometry, yeast-displayed IgG, binding/display ratio
[7] = target: T4, full length human CB1 expressed on cells (human, UniProt P21554 1-472); assay: KinExA, on HEK 293T cells expressing full length CB1
T4 construct: also called huCB1; full length hu CB1
T4 sequence (P21554 whole entry): as the sequence (P21554 whole entry) above

[8] = target: T5, human cannabinoid receptor type 2 (CB2) (human, UniProt P34972 1-360); assay: binding to huCB2, fold over mock (method not described)
T5 construct: also called huCB2; full length hu CB2
T5 sequence (P34972 whole entry): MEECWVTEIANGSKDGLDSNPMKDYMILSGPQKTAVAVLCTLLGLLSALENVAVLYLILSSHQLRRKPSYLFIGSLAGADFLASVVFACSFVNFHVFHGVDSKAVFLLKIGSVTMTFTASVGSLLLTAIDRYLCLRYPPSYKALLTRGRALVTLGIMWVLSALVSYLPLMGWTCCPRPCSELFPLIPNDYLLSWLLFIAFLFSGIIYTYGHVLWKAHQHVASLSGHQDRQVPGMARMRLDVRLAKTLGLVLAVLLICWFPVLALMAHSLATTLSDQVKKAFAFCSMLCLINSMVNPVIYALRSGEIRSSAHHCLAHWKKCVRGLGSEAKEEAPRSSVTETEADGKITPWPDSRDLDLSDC

mouse CB1 [9] = target: T6, mouse CB1 (mouse, UniProt P47746 1-473); assay: binding to muCB1, fold over mock (method not described)
T6 construct: also called muCB1; murine CB1
T6 sequence (P47746 whole entry): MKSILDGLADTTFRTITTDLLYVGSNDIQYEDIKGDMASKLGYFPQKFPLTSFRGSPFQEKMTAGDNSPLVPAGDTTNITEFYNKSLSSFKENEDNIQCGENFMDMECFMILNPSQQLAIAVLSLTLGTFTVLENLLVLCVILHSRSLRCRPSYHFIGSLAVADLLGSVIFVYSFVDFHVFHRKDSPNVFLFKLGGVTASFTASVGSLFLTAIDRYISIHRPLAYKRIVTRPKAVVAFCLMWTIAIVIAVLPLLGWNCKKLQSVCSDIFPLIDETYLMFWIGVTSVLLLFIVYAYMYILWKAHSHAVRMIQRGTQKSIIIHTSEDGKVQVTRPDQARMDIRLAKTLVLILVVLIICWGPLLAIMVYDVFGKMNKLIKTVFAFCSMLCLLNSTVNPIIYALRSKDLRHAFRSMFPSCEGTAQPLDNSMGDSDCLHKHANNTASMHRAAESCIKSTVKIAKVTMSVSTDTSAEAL

mouse CB1 [10] = target: T6, mouse CB1; assay: fold over mock (Table 14)
[11] = target: T5, human cannabinoid receptor type 2 (CB2); assay: fold over mock (Table 14)
[12] = target: T7, GFP-fused huCB1-SMALP (human CB1 in styrene maleic acid lipoparticles) (human, UniProt P21554 1-472); assay: flow cytometry, yeast-displayed IgG, GFP MFI
T7 construct: Prepared as in Luna V. et al. 2018; also called huCB1-GFP-SMALP; wtCB1-SMALP; not shown: GFP fusion
T7 sequence (P21554 whole entry, the tested form may be a part): as the sequence (P21554 whole entry) above

Row | Binder | Relative binding (KinExA, on cell; vs LIBC523661 mAb) [1] | Mean IC50 (nM), cAMP antagonist assay [2] | Mean IC50, -fold vs Rimo [2] | n = 1 IC50 (nM), cAMP antagonist assay [2] | n = 1 IC50, -fold vs Rimo [2] | n = 2 IC50 (nM), cAMP antagonist assay [2] | n = 2 IC50, -fold vs Rimo [2] | Mean IC50 (nM, n = 3), cAMP antagonist assay [3] | IC50, nM (CP agonist) [4] | Kd (huCB1 nanodisc (CB1-ND)) | koff (huCB1 nanodisc (CB1-ND)) | kon (huCB1 nanodisc (CB1-ND)) | specific huCB1 binding (CB1 ND/Empty ND ratio) [5] | relative binding to 0.2 nM huCB1-ND (relative to 10D10N35Y) [6] | Kd [7] | Fold over mock [8] | Fold over mock (mouse CB1 [9]) | binding result (mouse CB1 [10]) | binding result [11] | 100 nM huCB1-SMALP binding (normalized to 10D10) [12]
1 | B1 | 1 ratio | 3.3 nM | 1.1 fold vs Rimonabant | 5.24 nM | 1.24 fold vs Rimonabant | 1.35 nM | 0.75 fold vs Rimonabant | 3.88 nM | 3.9 nM | 77 nM | 0.00275 s⁻¹ | 35700 M⁻¹ s⁻¹ | – | – | – | – | – | – | – | –
2 | B2 | – | – | – | – | – | – | – | – | – | – | – | – | 9.32 ratio | 4.03 fold | 0.064 nM | 0.8 fold | 0.7 fold | no binding | no binding | 8 fold
